Measurements: the supplement of paper PMC9170038

Test system: MS2 coat protein
Assay: apparent KD of MS2 coat protein; designed switch direction (-1 OFF switch, 1 ON switch): 1; higher = weaker reporter binding
Procedure, shortened: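 Normalised cluster fluorescence was curve-fitted, and each design's median over clusters is its apparent KD. Before this, SNAP-549-labelled MS2 coat protein was titrated from 0.7 or 1.5 nM, doubling to 3 µM, over RNA switches transcribed on Illumina chips by stalled E. coli RNA polymerase. Titrations had no input, 200 uM small-molecule ligand, or an oligonucleotide input, and steps lasted 0.8–1.5 h (lowest) to 10–20 min (highest).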

[1] = input ligand: microRNA oligo, concentration not stated

Sequence | apparent KD of MS2 coat protein (input ligand: FMN 200 uM) [nM] | apparent KD of MS2 coat protein [1] [nM] | apparent KD of MS2 coat protein (input ligand: none) [nM] | apparent KD of MS2 coat protein (Eterna round: R95, input ligand: FMN 200 uM) [nM] | apparent KD of MS2 coat protein (Eterna round: R95, input ligand: microRNA oligo, concentration not stated) [nM] | apparent KD of MS2 coat protein (Eterna round: R95, input ligand: none) [nM]
AGAGGAGGAGCAGGAUAUUCGAAGAAGGACGUGGAAGAAGGGUUCAUGCGAUGACAUGAGGAUCACCCAUGUACCGCGCGAUGA [AK SSNG1-V2-13] (Eterna round: R96, puzzle: Same State NG 1) | 145 | 115 | 130 |  |  | 
AGAGGAGGAGCAGGAUAUUCGAAGAAGGACGUGGAAGAAGGGUUCAUGCGAUGACAUGAGGAUCACCCAUGUACCGCGCGUUGA [AK SSNG1-V2-14] (Eterna round: R96, puzzle: Same State NG 1) | 185 | 78.6 | 156 |  |  | 
AGAGGAGGCGCAGGAUAUACGACGGAGGACGAGGUAGAAGGGUGCAUGCGAUAACAUGAGGAUCACCCAUGUACCGCGCGACGA [AK SSNG1-V2-17.1] (Eterna round: R96, puzzle: Same State NG 1) | 122 | 24.9 | 45.6 |  |  | 
AGAGGAGGCGCAGGAUAUACGACGGAGGACGUGGUAGAAGGGUGCAUGCGAAAACAUGAGGAUCACCCAUGUACCGCGCGACGA [ssng1 c] (Eterna round: R96, puzzle: Same State NG 1) | 816 | 30.1 | 126 |  |  | 
AGAGUGUAUCCACAGGAUAUGCGAGCUGACACAUGAGGAUCACCCAUGUAGUCCUAAAGGGCCAAGCAGAAGGGUGGUAAAGCUC [Oneson] (puzzle: Same State 2) |  |  |  | 17.5 | 28.9 | 33.9
AGAUCAUGACGAGGAUAUGGUACAUGAGGAUCACCCAUGUAUGUACCACGACGCGUACGUCGAAUCCAGAAGGCGUCGUGAUCA [Mat - Same State NG 2 - JL mod - D16] (Eterna round: R96, puzzle: Same State NG 2) | 19 | 66.1 | 99.3 |  |  | 
AGAUCAUGACGAGGAUAUGGUACAUGAGGAUCACCCAUGUAUGUAUCAUAACGCGAAUGACGAAACCAGAAGGCGUCGUGGUCA [JL SSNG2 1.11] (Eterna round: R96, puzzle: Same State NG 2) | 10.2 | 14.6 | 14.9 |  |  | 
AGAUCUCCUCUAGGAUAUCCCUAACAUGAGGAUCACCCAUGUCCGAAUUGCAGACAUAGGCCGAGGGAGAAGGAGAAACCGUCG [Eternabot solution 41] (Eterna round: R96, puzzle: Same State NG 2) | 742 | 576 | 856 |  |  | 
AGAUGUUAAUCAGGAUAUGGGCACAUGAGGAUCACCCAUGUAAAUUCGAUACUAUGUGGUCACGUCUAGAAGGGAUGGCUAACA [SameState NG2 #82] (Eterna round: R96, puzzle: Same State NG 2) | 189 | 158 | 250 |  |  | 
AGCCGAGACACAGGAUAUACAUGUAUACAUGAGGAUCACCCAUGUAGCAACACGUGGUAGUGAUUGUAGAAGGGUGCUCGGCGC [Omei SS(NG)2 Cv13] (Eterna round: R96, puzzle: Same State NG 2) | 20.4 | 32 | 36.8 |  |  | 
AGCCGAGACUGAGGAUAUUUGUAUCUACAUGAGGAUCACCCAUGUAGCGUCACGUGGUAGUGAUCGAAGAAGGCAGCUCGGCGC [MOD3 of Omei's SS(NG)2 Cv2] (Eterna round: R96, puzzle: Same State NG 2) | 11.1 | 11.2 | 21.9 |  |  | 
AGCGAAAGCAGUCACAUGAGGAUCACCCAUGUAUUAACUAUUGAGGAUAUGCAGCGACGGGUGUAGCAGAAGGCAGUGAGAAGG [Eternabot solution 30] (Eterna round: R96, puzzle: Same State NG 3) | 54.4 | 52.1 | 61.1 |  |  | 
